Experimental data: the DeepSol protein solubility set

test: soluble on expression in E. coli; label from the status in PepcDB or PDB records

Soluble on expression in E. coli, not soluble:
MGSDKIHHHHHHMYLKELSMMPGVSGDEGKVRDFIKSKIEGLVDNLYTDVLGNLIALKRGRDSSKKLLVSAHMDEVGFVVSKIEKDGKVSFLPVGGVDPRILPGKVVQVKNLKGVIGYRPIHLQRDEENTPPRFENLRIDFGFSSADEAKKYVSIGDYVSFVSDYIEKNGRAVGKAFDDRAGCSVLIDVLESGVSPAYDTYFVFTVQEETGLRGSAVVVEQLKPTCAIVVETTTAGDNPELEERKWATHLGDGPAITFYHRGYVIPKEIFQTIVDTAKNNDIPFQMKRRTAGGTDAGRYARTAYGVPAGVISTPARYIHSPNSIIDLNDYENTKKLIKVLVEEGKIVEVVS
MGSDKIHHHHHHMVKGLRQLNNRVDILSLPGAEPEVEEAKAIDEKVNQPPTKKSSFSILSDLTKHVPEFVFELFELAFNLIAVIRLRKTVKEKNITLIYERYSLFMFASVWWAKRHNLPIVLEINDSCQVQRVRSLTFKKLAAKIEGWIFKNATGLVFISTRFKEVAEQAYGEISNSVVSPNGADLDKFIIDETSGLALRSKLGVENKIVLGYVGAFVHWHGIDWFVDLACQKLKETPELVLLLVGDGVAFEGIKKRVIEAGVESQVILPGKVPHHEVSSFLSAMDLGILPDSNDYGSPMKLFEFMAMGKGMIAPDFSPIAEVVQDNATSWLFPASNKQACIDKVFEIVNDREAHQEVGKKARAYIENERQWKHNAEQLLSLVTAREKA
MQNISTHKYMEKLDLTWSDDSIRFINTATPRARQTFFYVQEAGDFCTSSPYFTERENLNSFLIIYTLRGKGLLKYHGSQYSLHPGTTAYINCMEHHHYECLQKQNWEFLWLHFNGPSALGYYEEFMRSNFHILDSLDPFFMESTMRRILSITQRKDIHSEILSSCLIINILTRILIENDTENLSLGFMPTY
MGSDKIHHHHHHMKDNKINILFLSWRDIKCPKSGGAEVFTHEMLKRLDFNKYDITHFSPTFEGAKEKEIIDNVTYIRRGNILSVISEAKKYYKTNKDEIDFVVDQCNTHKFFTPLWVPKKKRIFFIHQLTREIWHINARFPISTLGYLFETPTLRLYKNDYTITVSDSTKKDLIDIGFDRDKVTIFPEGINFKPWDKDSLLKEKDNIFGYIGRFVNYKGIDAAVKAYCILKKDYPNSKLWIIGKKKDDYIEKVLLPILKENNITYGNRGQNRDITFWGFVSEKEKLSLMSKMKALLFPSIREGFGLTVIEAGAVGTPTVVYNSKGLVDAVDKGKAGYLCEENTPENLYYFMKNILENENEYGLKRKNAHDFSLKFNWDSTSKYFDDFINKLNEKSLKK
MMGSSSQELQTALTDVSKTCHHLWEENKDLQGRFVNELGELQRLQMVIAQLEQQQRLENVFTVKQQMTELQKRAATLYEHLTQKRNDIVIKLNDGTNFATMLQTQLIGEKLFSWKNAQKLAQIGMPFDNREQLLDEIQIEFEFLADQNWQLNMFSCWMLDLLRRAPQLNDGLAQATIGKLTAITEQLNKLLFMLVSQSFIVSVQPEPVLKTQHKFVTEVRLLIGDKLGIRQHLVNTNVSVKIIAEDEAKQLSVDYDAHKEIRNNKTVGTISNDFEKLTMNERGHLAAKFNNSKLTRIAHRKPPPKGASDLKCAASMQAATDQKYALLFFITPFQMGNLSKEEQFDVWTLSLPIMVTVHGSQDCDAQVAILWHRAFASISRNPNTTDVTAVTWDNLAIMLRNKFSLFTGARRPLSDSDLAYLSEKMLMPNVADQKPITFHRFAKQAMRDDLPFSFWEWFFSIMQLIKQKLLKFWDEGWCIGFISKNDASQSMMMCQHSSFLLRFSDSQTGAVSIGFVCEEADGQKIPFHLAPFTIKDLDQLSLASRIASCPQLKDIRYMYPAIDKEEMLRFFESEERHRVGGGDSPTGYIQSEIVMVAKTNGNFRRMSNAPSMFGADSPSPLSVQSKLDWSPGEVHQNHMMEMSDELGQILTVSDMSGDVETLLGPAFKNNITNYNPHDGNHQHNLHFVDMSQQGMMQQHHNQFYPS
MKKKPLTPEQLDDAKRLKELFNAKKKALGISQESVAHELGVGQSAVNQFLNGVNPLNITNAAAFAKVLNEPISSFSPSLAKELAKMAESLSITTRSGAKDKPAVSVANSYPLISWISAGNWYEAIEPYTLRDIEIWPESTKHAHESAFWLSVKGDSMTSPSGISFPEGMIILVDPEKEPMPGNFVIAKLTDDNEATFKKLVVDAGIKYLKPLNPAYRLIELNGNCKILGVVVDARWLQID
